Drawing on patent US20230295276A1, this text covers OD450 for 1 molecule.

Assay [1] has as its target lysate of porcine coronavirus. As to the kind of experiment: ELISA Test 1, coated viral lysate, antibody 1:4000, Group 1. (An ELISA detects its analyte on a solid surface through an enzyme-linked reagent.)
The target in assay [2] is lysate of porcine pseudorabies virus. Described as above.
Assay [3] addresses lysate of porcine coronavirus. As to the kind of experiment: ELISA Test 1, coated viral lysate, antibody 1:4000, Group 2.
In assay [4] the target is lysate of porcine pseudorabies virus. The assay is described as above.
In assay [5] the target is lysate of porcine coronavirus. Briefly: ELISA Test 2, coated viral lysate, antibody 1:4000, secondary antibody 1:2000.

B1: anti-PRRSV antibody 572 (antibody, V domains shown)
VH: EVQLQQSGPELVKPGASVKISCKASGFSFTGYYMHWVKQSHVKSLEWIGRIYPYTDSTIYNQNFKDKAGLTVDKSSSTAYMELHSLTSEDSAVYYCARDNGYADYAMDYWGQGTSVTVSS
VL: DIVMTQSPSSLSAFLGDSITITCHASQNIHVWLSWYQQKPGNIPKLLIYKASNLHTGVPSRFSGSGSGTGFTLTISSLQPEDIGTYYCQQGQSYPLTFGAGTKLELK
With B1, the OD450 came to 0.322 OD450 in assay [1]; 0.091 OD450 in assay [2]; 0.312 OD450 in assay [3]; 0.1 OD450 in assay [4]; 0.782 OD450 in assay [5].
